Measurements: PMC5524754, “Angiopoietin-like 4 induces a β-catenin-mediated upregulation of ID3 in fibroblasts to reduce scar collagen expression” (Scientific Reports, 2017)

Molecular target: T1, Extracellular domain of human CDH11 (Abnova) (human, UniProt P55287 54-617)
T1 construct: cadherin-11 (CDH11), human, extracellular domain; No catalogue number is printed; also called cadherin-11; immobilized CDH11; source: bought: Abnova
T1 sequence (looked up): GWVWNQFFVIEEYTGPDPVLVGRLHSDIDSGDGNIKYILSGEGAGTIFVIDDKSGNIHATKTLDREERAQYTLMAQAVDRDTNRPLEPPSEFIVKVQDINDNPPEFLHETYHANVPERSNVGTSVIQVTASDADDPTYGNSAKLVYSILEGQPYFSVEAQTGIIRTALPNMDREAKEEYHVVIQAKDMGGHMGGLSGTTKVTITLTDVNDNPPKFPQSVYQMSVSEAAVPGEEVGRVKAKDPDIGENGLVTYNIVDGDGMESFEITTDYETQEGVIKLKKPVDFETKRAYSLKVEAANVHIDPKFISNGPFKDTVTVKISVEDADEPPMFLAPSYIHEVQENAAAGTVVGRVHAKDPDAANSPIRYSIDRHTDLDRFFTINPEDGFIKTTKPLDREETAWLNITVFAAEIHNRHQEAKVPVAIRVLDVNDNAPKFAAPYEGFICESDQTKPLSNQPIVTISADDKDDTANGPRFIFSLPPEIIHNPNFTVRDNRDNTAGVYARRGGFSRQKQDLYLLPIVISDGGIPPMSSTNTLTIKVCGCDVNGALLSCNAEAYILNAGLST
Test: SPR; BIACore 3000; extracellular domain of human CDH11 immobilised on a CM5 chip by amine coupling; PBS running buffer; cANGPTL4 injected at 28.6, 14.3, 7.15, 3.58 and 1.79 nM, 10 uL/min; Langmuir 1:1 model
Conditions: both partners purified

B1: recombinant human cANGPTL4 (C-terminal fibrinogen-like domain of angiopoietin-like 4) (domain or fragment, UniProt Q9BY76 179-401, looked up)
chain: SRLHRLPRDCQELFQVGERQSGLFEIQPQGSPPFLVNCKMTSDGGWTVIQRRHDGSVDFNRPWEAYKAGFGDPHGEFWLGLEKVHSITGDRNSRLAVQLRDWDGNAELLQFSVHLGGEDTAYSLQLTAPVAGQLGATTVPPSGLSVPFSTWDQDHDLRRDKNCAKSLSGGWWFGTCSHSNLNGQYFRSIPQQRQKLKKGIFWKTWRGRYYPLQATTMLIQPMA
notes: angiopoietin-like 4 (ANGPTL4), human, C-terminal fibrinogen-like domain (cANGPTL4); also called recombinant cANGPTL4 protein; source: purified protein for SPR, added to fibroblast cultures and applied to wounds
Kd: 42.8 nM
